B1: complex I (NADH:ubiquinone oxidoreductase), Pd-CI (Paracoccus denitrificans PD1222) (protein)
chain 1: MDGDIRKNSYDDGSMDALTGEQSIRNFNINFGPQHPAAHGVLRMVLELDGEIVERADPHIGLLHRGTEKLMESRTYLQNLPYLDRLDYVAPMNQEHAWCLAIERLTGTVIPRRASLIRVLYSEIGRILNHLMGVTTGAMDVGALTPPLWGFEAREELMIFYERACGARLHAAYFRPGGVHQDLPPDLLDDIEEWCERFPKLVDDLDTLLTENRIFKQRLVDIGIVTEADALDWGYTGVMVRGSGLAWDLRRSQPYECYDEFDFQIPVGRNGDCYDRYLCRMAEMRESCKIMQQAVQKLRAEPAGDVLARGKLTPPRRAEMKRDMESLIHHFKLYTEGFKVPAGEVYAAVEAPKGEFGVYLVADGTNKPWRAKLRAPGFAHLQSIDWMSRGHMLADVPAIIATLDIVFGEVDR
chain 2: MMTGLNTAGADRDLATAELNRELQDKGFLLTTTEDIINWARNGSLHWMTFGLACCAVEMMQTSMPRYDLERFGTAPRASPRQSDLMIVAGTLTNKMAPALRKVYDQMPEPRYVISMGSCANGGGYYHYSYSVVRGCDRIVPVDIYVPGCPPTAEALLYGILQLQRRIRRTGTLVR
chain 3: MAEFWASPYGFALSMLLQGLAVIAFVMGSLIFMVYGDRKIWAAVQMRRGPNVVGPWGLLQTFADALKYIVKEIVIPAGADKFVYFLAPFLSMMLALFAFVVIPFDEGWVMANINVGILFIFAASSLEVYGVIMGGWASNSKYPFLASLRSAAQMISYEVSLGLIIIGIIISTGSMNLTAIVEAQRGDYGLLNWYWLPHLPMVVLFFVSALAECNRPPFDLVEAESELVAGFMTEYSSTPYLLFMAGEYIAMYLMCALLSLLFFGGWLSPVPFIADGWWWMVIKMWFWFYMFAMVKAIVPRYRYDQLMRIGWKVFLPLSLGWVVLVAILARYEILGGFWARFAVGG
chain 4: MLNDQDRIFTNLYGMGDRSLAGAKKRGHWDGTAAIIQRGRDKIIDEMKASGLRGRGGAGFPTGMKWSFMPKESDGRPSYLVINADESEPATCKDREIMRHDPHTLIEGALIASFAMGAHAAYIYIRGEFIREREALQAAIDECYDAGLLGRNAAGSGWDFDLYLHHGAGAYICGEETALLESLEGKKGMPRMKPPFPAGAGLYGCPTTVNNVESIAVVPTILRRGAEWFASFGRPNNAGVKLFGLTGHVNTPCVVEEAMSIPMRELIEKHGGGIRGGWKNLKAVIPGGASCPVLTAEQCENAIMDYDGMRDVRSSFGTACMIVMDQSTDVVKAIWRLSKFFKHESCGQCTPCREGTGWMMRVMERLVRGDAEVEEIDMLFDVTKQVEGHTICALGDAAAWPIQGLIRNFREEIEDRIKAKRTGRMGAMAAE
notes: intact purified complex I, His6-tag on Nqo5; with multisubunit complex (14 core Nqo subunits plus PdNUMM, PdNUYM, PdN7BM)
B2: complex I (NADH:ubiquinone oxidoreductase), Pd-CI (Paracoccus denitrificans PD1222) (protein)
chain 1: B1 chain 1
chain 2: B1 chain 2
chain 3: B1 chain 3
notes: purified complex I reconstituted in proteoliposomes, His6-tag on Nqo5; with multisubunit complex (14 core Nqo subunits plus PdNUMM, PdNUYM, PdN7BM)

Tests used:
Format in all cases: biochemical, Paracoccus denitrificans
Conditions in all cases: FMN, FeS clusters
[1] = substrate: COC1=C(OC)C(=O)C(CC=C(C)C)=C(C)C1=O; test: KM, quinone reduction by purified soluble enzyme
[2] = substrate: CCCCCCCCCCC1=C(C)C(=O)C(OC)=C(OC)C1=O; test: KM, NADH:DQ oxidoreduction by purified soluble enzyme
purified protein = substrate: COC1=C(OC)C(=O)C(C/C=C(\C)CC/C=C(\C)CC/C=C(\C)CC/C=C(\C)CC/C=C(\C)CC/C=C(\C)CC/C=C(\C)CC/C=C(\C)CC/C=C(\C)CCC=C(C)C)=C(C)C1=O; test: purified protein

Protein	Km [1] [µM]	Km [2] [µM]	Km (purified protein) [µM]
B1	124 ± 8	169 ± 15	–
B2	–	–	1100 ± 200

Source: paper PMC8115037, “Paracoccus denitrificans: a genetically tractable model system for studying respiratory complex I” (Scientific Reports, 2021)
